Data: the DeepSol protein solubility set

Test: soluble on expression in E. coli; label from the status in PepcDB or PDB records
With “MTIGTLPFDQETIRQRASEVNEAAWLTEFRLQALAQATELPMPTPDKTKIDKWDFIGKGDAAKQEPVSSLTELPEAVKNLIDENNSVLVQRTGTTAFVSLADEAKEKGVIFTDIVTAATEHAELVQKYLMKDGVKVDEHRLTALHAALINGGAFVYVPKNVVLETPLQAVFLVDGEEANVYNHVLFVADANSTATYVENYVANENAKGIANIVAEVIVEQGAQVKFGAVDLLAKDVTTYVNRRGVVGRDGRIDWALGLMNDGNTISENVTNLMGDGSYADTKTVTIGRGNQTQNFTTKVVHFGKHSEGWILKHGVQKDSATSIFNGIGKIEHGASKSNAQQSSRVLMLDEKARGDANPILLIDEDDVMAGHAASVGRVDPVQLYYLMSRGIPKREAERLVIHGFLAPVVNELPIEGVKAQLVEVIERKVR” the “soluble on expression in E. coli” value was “not soluble”.
With “MGGSHHHHHHGMASTQLFLWEYGDLHLFGPNQRPAPCYDPCEAVLVESIPEGLDFPNASTGNPSTSQAWLGLLAGAHSSLDIASFYWTLTNNDTHTQEPSAQQGEEVLRQLQTLAPKGVNVRIAVSKPSGPQPQADLQALLQSGAQVRMVDMQKLTHGVLHTKFWVVDQTHFYLGSANMDWRSLTQVKELGVVMYNCSCLARDLTKIFEAYWFLGQAGSSIPSTWPRFYDTRYNQETPMEICLNGTPALAYLASAPPPLCPSGRTPDLKALLNVVDNARSFIYVAVMNYLPTLEFSHPHRFWPAIDDGLRRATYERGVKVRLLISCWGHSEPSMRAFLLSLAALRDNHTHSDIQVKLFVVPADEAQARIPYARVNHNKYMVTERATYIGTSNWSGNYFTETAGTSLLVTQNGRGGLRSQLEAIFLRDWDSPYIHDLDTSADSVGNACRLL” the “soluble on expression in E. coli” value was “not soluble”.
In the case of “MGESGTKSRFPIRVQLEANKQYYWCRCGLSQSQPFCDGAHRGTGMNPVVFVVRETSPVWLCVCKETKNIPFCDCFRTDLEHHHHHH”, the “soluble on expression in E. coli” value is reported as “not soluble”.
For “MTEMAKGSVTHQRLIALLSQEGADFRVVTHEAVGKCEAVSEIRGTALGQGAKALVCKVKGNGVNQHVLAILAADQQADLSQLASHIGGLRASLASPAEVDELTGCVFGAIPPFSFHPKLKLVADPLLFERFDEIAFNAGMLDKSVILKTADYLRIAQPELVNFRRTA”, the “soluble on expression in E. coli” value was “soluble”.
In the case of “MLVAAILVGCGRDAPPPAAPVALDKTFLADTAAWREARLKELRAPDGWTSLVGLHWLSLKAHYIGSSADSGIKLAVGPPKMGMVSTENNAVWFVPERGAALTLDGKPLTSRIRFQSDRDPQPTLIHFDDGKGVLSLIHRGDRYALRVKHADASSRTHFAGLDYWPLDASWRINARYVPNAVGKTIPIVDIVGISSEQPNAGAIEFERDGKTFRLETIGEPGRAMFVVFADRTSGHGSYPAGRFLDLDVPDASGHVMVDFNRAYNPPCAFTPFATCPLPPPENRIDLAVSAGEKAYKVPHLEHHHHHH”, the “soluble on expression in E. coli” value is reported as “soluble”.
For “MAHHHHHHMESGKNAHRLNRIFRKPKTMVAPRAWRPAADGEGERQQPFSGVSLQRINAMISELSEEERTRALAQQDPPTVVQEELAKRAARFGLTIERADAGNNEKTASSEITPEVQAVFQRRMERFGQSAAEEAMQKRVARFGNAATSAEGPGVELKLSEADREAMQRRQSRFGG”, the “soluble on expression in E. coli” value was “soluble”.
In the case of “MGGRSRWEIAQESTLALARKCEQFDPDGITVYLFSGKFKRYDDVTSAKVAQIFLENDPAGTTNLAGVLQDALNNYFQRKAAGKTKPNGETILVITDGEPDDRKAVFETIIHATRQMERDEELGISMIQVGSDAQATKFLKALDDQLQSVGAKFDICDTITLEDLEDMSLADVLMNAITDLEHHHHHH”, the “soluble on expression in E. coli” value is reported as “not soluble”.
For “MASISRARQVELLLVADASMARKYGRGLQHYLLTLASIANRLYSHASIENHIRLAVVKVVVLGDKDKSLEVSKNAATTLKNFCKWQHQHNQLGDDHEEHYDAAILFTREDLCGHHSCDTLGMADVGTICSPERSCAVIEDDGLHAAFTVAHEIGHLLGLSHDDSKFCEETFGSTEDKRLMSSILTSIDASKPWSKCTSATITEFLDDGHGNCLLDLPRKQI”, the “soluble on expression in E. coli” value was “soluble”.
In the case of “MSDDHHDDEHFHTGDSGAAATFPKQCSALRKNEHVMIKGRPCKIVEMSTSKTGKHGHAKVHMVAIDIFTSKKLEDICPSTHNMDVPVVKRREYLLMAIDDGYCSLMDPESCEQKDDLKLPDTELGQQIRDAYEKDEGSVLVQVVSAIGEEAILGWKVSTKE”, the “soluble on expression in E. coli” value is reported as “not soluble”.
In the case of “MGSDKIHHHHHHMHHESPIRRRKTRQIHVGKVAIGGDAPISVQSMTNTETRDIAATVAQIRRLEAVGADIVRISVPSMDAAEAFKTIRAQVETPLVADIHFDHRIALQVMEDGVDGLRINPGNIGSLDKTRLVVEMAKDKGIPIRIGVNAGSLEKDIQEKYGEPTPEALVESALRHVSILDELNFHDVKISVKASDIFLAVSAYRLLSEKVDYPLHLGITEAGGLRSGTVKSAIGLGLLLRDGIGDTIRVSLAADPVEEIRVGFDILKSLHLRQKGINLIACPSCSRQEFDVITTINALEARLEDILEPMDVSVIGCVVNGIGEAKEADIGLAGGDKRSILYYRGKQVDRVENNDIVDVLEKRIRAEIAERQATRHEG”, the “soluble on expression in E. coli” value is reported as “not soluble”.
For “MTMNIAVVSGRIAPELTLPGLNFSRAYAPSTDFRSARLGLLTGQYPQRQPVTRFASLIGTVAEDFSPADVHIIERAEITPDLLDQAHDSGAATFFVGHPTIDDHRVRMSLLWPGVTDTNLPHDTIDGVVTCNELVSTLDIAPTLAAIAGYDVRPNAQLSFDGMNLTPVIRYGATGHGGLFFDDGTVITPTEVRRQANDPEWTMWHQFMNMGPLQ”, the “soluble on expression in E. coli” value was “not soluble”.
With “MSDPADVFDLVGLTEYEATALEQLLSLGRTTAPNLAEASGIPKARVYGVLESLSDRGFIKLIPGRPKEYQPKSPSDILDRAVENRKQSYESFAADMDSYRDAFLAEYEPRFERANEDISPTAELFHVVDVGEPSERETRRLYDDADETLRVITNSFAYLDNVERALAETLDRGVEVNVLFLHPDALPPEKAAVQADIVDRLTAEYPAIDLRFSTEKLPWRGTLVDPSMDYDSGEAILLVEEPDVPNHMRQAAITDNGSFVAGMKRYFDLVWEYESVQRSN” the “soluble on expression in E. coli” value was “not soluble”.
For “MKLNFSLYRYNPDVDNKPYMKDYILEVEEGSDMMVLDALILLKEQDPSIAFRRSCREGVCGSDGLNMNGKNGLACITPLSALKGDKIVIRPLPGLPVVRDLIVDMTQFYDNYAKVKPFLIADDALPPSRENLQSPEERAHLDGLYECIMCACCTTSCPSFWWNPDKFIGPAGLLAAYRWLIDSRDTATDERLSNLDDAFSVFRCHGIMNCVSVCPKGLNPTKAIGHIKSMLINRSV”, the “soluble on expression in E. coli” value was “not soluble”.
In the case of “MGSDKIHHHHHHMNLFSPHLKRNELIKFAKELDFSKSQDLLINVHRNHAFEGVQSIIAPFLHFANLRAEFNFSSYDDSLSFDNFKEASLELLWLDLTRYKNNVQNFIEERLLELRKISQNPILVLSLGEFKTDKKILNCEIFNIEKLIKEYFDEEDILDLAKEELTGSKLNNKALIFLAQILGLSLIPALVKPALKALVLDLDNTLYQGILGEEGIDNLNLSPLHKTLQEKIKTFKKQGFLLALASKNEEKDAKKLFEIRKDFILQWDDFDARMINWEPKGENILKIAKKFNINTNAMLFIDDNIAELENTKITGVKTLLCDENILYKIKLFPNLLKLSNTKEDQIRAKDIAANALREELKSLSDEEYFQNLEISLNFSKNDLQNIPRISELLGKTNQFIANYTRLNQEKVAQHMQKELIVSVSMSDKLSDSGIIAIFVFSCKEGNLFIDDLCISCRALGRKLETRMFFKAFELALHFFDLKNNNARLYYQKGERNMPFLSFLEQISKEFEKNSALIPFQNLNFKGLIIHEN”, the “soluble on expression in E. coli” value is reported as “not soluble”.
For “MSLENRGILFDKDGTCIRFDTLWQAGLQACFETLSMLAPHHSAEIKKILAIQEQRFLQKHLLDEVLYQELYQELAQFEELVEQGISSRWLEQFFYDYLRKNLKKIEPIGDLKQLFLELKRKNYKIGLATSDTLPATMLIMEYLGLTEMFDFIATGDRYLPKPDADMLQAFCQSCQLKATEVIMVGDSLVDVFMGTCHGKAGIGVLTGNCQSTDFEKFEVAYFRDIHEIPYQELWGNTKKKKIYYVEGHHHHHH”, the “soluble on expression in E. coli” value was “soluble”.
In the case of “MAHHHHHHMLRCSCARRRGVYHNAPSVYPFVKPFHDTPYDQDRGRHDSVGQRYRKNSWPEWMDNGADGTGYGIGLHRTHPLSRLRGNLKRSPSHVPRVLGMMIQGVWHKSGVKLYFRGGKPPNPSVHPYLTGEPCPLYGWKVTDESVIRQFNMPSIDGTNFRYKPYVALQERKIMGVQVPSDSVSLASGRTTESKPLAKRLFFWR”, the “soluble on expression in E. coli” value is reported as “not soluble”.
In the case of “MGSDKIHHHHHHMKTIQPIDWLQPKTEAEEIRFRSTGFRWGNKGTHTSRTIMLDELRALLNYSRPDATRDDYVSVIIEDNCLGKRTASTRKLSLQRLSELYALDPKVLLFQLMRYFWYADRSGQAILPLLLALARDPLLRATAASVLCMHPGEEFARQPMTDALNQAAGGRFNEGTLNKIVRNAASSWTQTGHLKGRSHKVRQSIAPTAITTAYALLLGYLTGTRGAKLFETPWAQALDTPPSTLMHLAMDARRLGFLDMSQSGGIVELGFSRLLPLDERR”, the “soluble on expression in E. coli” value is reported as “not soluble”.
In the case of “QTLDIQRGATLFNRACIACHDTGGNIIQPGATLFTKDLERNGVDTEEEIYRQTYFGKGRMPGFGEKCTPRGQCTFGPRLQDEEIKLLAEFVKFQADQGWPTVSTD”, the “soluble on expression in E. coli” value is reported as “soluble”.
For “MGSDKIHHHHHHVTALSIIKEAEHSLQMLFNELEEIAYTNQVRVIEAFHKHRVREYYFYPSTGYGYGDSGRDALEDIFADIFGTEDALVRSQVVSGTHAISACLFALLRPGDELISLTGSPYDTLCRIIGHEEKSPGTLIDKGIKYSEVDLDERGKPDLTAIAAAIKDTSRMVLIQRSRGYKTRPPVDLDTIAAITKLVKARNPATIVMLDNCYGEFTAVQEPGHYGVDIIAGSLIKNPGGGLIPSGGYIAGNQDLIEQLAFHLTAPGLGKELGASLLDKRIMYQGLFLAPHTVLQALKGAVLLAYVFEEHGYEVFPRWNEKRSDIVQAVKLRDAAEVLRFCQEVQNASPVDSDVTLEYGELPAYRDKIVMAAGTFVQGSSIELSCDAPLRSPHCVFLQGGLSYEHCRFLLQRLLDRFLLANA”, the “soluble on expression in E. coli” value was “not soluble”.
With “EIEKGGCGDPGIPAYGKRTGSSFLHGDTLTFECPAAFELVGERVITCQQNNQWSGNKPSC” the “soluble on expression in E. coli” value was “soluble”.
With “MVMSFIKYPLPESVLQATEQRIQWVMDNFSRICVSFSGGKDSTVMLHLTAQAARLQGKKICVLFIDWEAQFSCTIAHCEKLRALYADVIETFYWVALPLTTQNALTQYKPQWQCWEPGTEWVRQPPPWAITHPGYFSFYQPGMSFEAFVSHFAEWFSQRRPAAVLVGIRADESLNRFMTISSQRKQRFADDKPWTTSAPGGHAWYIYPLYDWKTADIWTWFAKSGEPYNPLYDLMYQAGVPLRYMRICEP” the “soluble on expression in E. coli” value was “not soluble”.
In the case of “MAGSPTCLTLIYILWQLTGSAASGPVKELVGSVGGAVTFPLKSKVKQVDSIVWTFNTTPLVTIQPEGGTIIVTQNRNRERVDFPDGGYSLKLSKLKKNDSGIYYVGIYSSSLQQPSTQEYVLHVYEHLSKPKVTMGLQSNKNGTCVTNLTCCMEHGEEDVIYTWKALGQAANESHNGSILPISWRWGESDMTFICVARNPVSRNFSSPILARKLCEGAADDPDGSGLNDIFEAQKIEWHHHHHHHH”, the “soluble on expression in E. coli” value is reported as “soluble”.
With “GSPGLKGDKGIPGDKGAKGESGLPDVASLRQQVEALQGQVQHLQAAFSQYKKVELFPNGQSVGEKIFKTAGFVKPFTEAQLLCTQAGGQLASPRSAAENAALQQLVVAKNEAAFLSMTDSKTEGKFTYPTGESLVYSNWAPGEPNDDGGSEDCVEIFTNGKWNDRACGEKRLVVCEF” the “soluble on expression in E. coli” value was “soluble”.
For “MTQTVDIENTDNVLSRRDSNAETQQMLRQRFETQPDLMPAQLASELGIAELEVVTALPQAQRVFLPLAHMDELLQSLPEWGSLTTIVMLSGSVFEFKGDFPQGKFAHGYYNLYSKGDGLHGHLKLDGMRAIALISRPFRGSESHSINFFGPQGEVVFKVYLGRDKQRVLFPDQVRRFKALAATFAD”, the “soluble on expression in E. coli” value was “soluble”.
